US20040076958

T1: AA21 synthetic peptide (N21 with two conserved glycines replaced by alanine)
T1 chain: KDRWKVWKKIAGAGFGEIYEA


Columns and labels:
[1] = biological target: recombinant human tau (1-441), full length tau, P10636
[2] = biological target: T1, AA21 synthetic peptide (N21 with two …)

recombinant human tau (1-441), full length tau, P10636, sequence (P10636 whole entry, looked up, tested part not stated): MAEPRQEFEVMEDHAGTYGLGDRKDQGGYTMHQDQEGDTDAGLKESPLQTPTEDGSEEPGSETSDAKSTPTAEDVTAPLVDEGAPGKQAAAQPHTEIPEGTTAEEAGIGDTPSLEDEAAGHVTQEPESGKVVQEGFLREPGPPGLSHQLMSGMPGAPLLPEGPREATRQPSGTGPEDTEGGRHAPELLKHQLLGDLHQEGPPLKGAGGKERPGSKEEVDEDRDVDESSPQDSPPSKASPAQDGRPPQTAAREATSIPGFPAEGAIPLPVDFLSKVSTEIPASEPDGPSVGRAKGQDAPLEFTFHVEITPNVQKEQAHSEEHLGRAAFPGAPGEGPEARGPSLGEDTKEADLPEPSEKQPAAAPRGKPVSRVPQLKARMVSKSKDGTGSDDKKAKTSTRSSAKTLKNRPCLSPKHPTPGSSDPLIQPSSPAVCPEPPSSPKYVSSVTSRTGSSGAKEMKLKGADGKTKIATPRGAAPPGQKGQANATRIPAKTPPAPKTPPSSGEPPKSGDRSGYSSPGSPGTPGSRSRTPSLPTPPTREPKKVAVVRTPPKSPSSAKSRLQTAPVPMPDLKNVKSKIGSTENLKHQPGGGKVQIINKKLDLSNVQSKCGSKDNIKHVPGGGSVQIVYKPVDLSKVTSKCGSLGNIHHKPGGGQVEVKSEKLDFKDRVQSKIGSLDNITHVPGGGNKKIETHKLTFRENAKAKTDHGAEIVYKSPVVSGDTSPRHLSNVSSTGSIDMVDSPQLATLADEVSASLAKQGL

Protein	tau phosphorylation [1]	BDTK phosphorylation and tau phosphorylation in vitro (AA21-BDTK, AA21-tau) [2]	tau phosphorylation in vitro ([gamma-32P]ATP, SDS-PAGE, autoradiography) [1]	time at which tau phosphorylation was saturated, pH 6.5 [1] [min at pH 6.5]	time at which tau phosphorylation was saturated, pH 7.5 [1]
Brain Derived Tau Kinase (BDTK) (protein) MQCLAAALKDETNMSGGGEQADILPANYVVKDRWKVVKKIGGGGFGEIYEAMDLLTRENVALKVESAQQPKQVLKMEVAVLKKLQGKDHVCRFIGCGRNEKFNYVVMQLQGRNLADLRRSQPRGTFTLSTTLRLGKQILESIEAIHSVGFLHRDIKPSNFAMGRLPSTYRKCYMLDFGLARQYTNTTGDVRPPRNVAGFRGTVRYASVNAHKNREMGRHDDLWSLFYMLVEFAVGQLPWRKIKDKEQVGMIKEKYEHRMLLKHMPSEFHLFLDHIASLDYFTKPDYQLIMSVFENSMKERGIAENEAFDWEKAGTDALLSTSTSTPPQQNTRQTAAMFGVVNVTPVPGDLLRENTEDVLQGEHLSDQENAPPILPGRPSEGLGPSPHLVPHPGGPEAEVWEETDVNRNKLRINIGKSPCVEEEQSRGMGVPSSPVRAPPDSPTTPVRSLRYRRVNSPESERLSTADGRVELPERRSRMDLPGSPSRQACSSQPAQMLSVDTGHADRQASGRMDVSASVEQEALSNAFRSVPLAEEEDFDSKEWVIIDKETELKDFPPGAEPSTSGTTDEEPEELRPLPEEGEERRRLGAEPTVRPRGRSMQALAEEDLQHLPPQPLPPQLSQGDGRSETSQPPTPGSPSHSPLHSGPRPRRRESDPTGPQRQVFSVAPPFEVNGLPRAVPLSLPYQDFKRDLSDYRERARLLNRVRRVGFSHMLLTTPQVPLAPVQPQANGKEEEEEEEEDEEEEEEDEEEEEEEEEEEEEEEEEEEEEEEAAAAVALGEVLGPRSGSSSEGSERSTDRSQEGAPSTLLADDQKESRGRASMADGDLEPEEGSKTLVLVSPGDMKKSPVTAELAPDPDLGTLAALTPQHERPQPTGSQLDVSEPGTLSSVLKSEPKPPGPGAGLGAGTVTTGVGGVAVTSSPFTKVERTFVHIAEKTHLNVMSSGGQALRSEEFSAGGELGLELASDGGAVEEGARAPLENGLALSGLNGAEIEGSALSGAPRETPSEMATNSLPNGPALADGPAPVSPLEPSPEKVATISPRRHAMPGSRPRSRIPVLLSEEDTGSEPSGSLSAKERWSKRARPQQDLARLVMEKRQGRLLLRLASGASSSSSEEQRRASETLSGTGSEEDTPASEPAAALPRKSGRAAATRSRIPRPIGLRMPMPVAAQQPASRSHGAAPALDTAITSRLQLQTPPGSATAADLRPKQPPGRGLGPGRAQAGARPPAPRSPRLPASTSAARNASASPRSQSLRRESPSPSHQARPGVPPPRGVPPARAQPDGTPSPGGSKKGPRGKLQAQRATTKGRAGGAEGRAGAR	Full length BDTK (SEQ ID NO:1), and isolated BDTK kinase domain (amino acids 38-319, SEQ ID NO:4) are able to phosphorylate tau	AA21 mutated peptide rather increased both BDTK (AA21-BDTK, from 30 to 300 )µM) and tau phosphorylation (AA21-tau, from 30 µM to 1 µM) in dose response manner	–	–	–
His-tagged BDTK(38-319), BDTK kinase domain (protein) KKIGGGGFGEIYEAMDLLTRENVALKVESAQQPKQVLKMEVAVLKKLQGKDHVCRFIGCGRNEKFNYVVMQLQGRNLADLRRSQPRGTFTLSTTLRLGKQILESIEAIHSVGFLHRDIKPSNFAMGRLPSTYRKCYMLDFGLARQYTNTTGDVRPPRNVAGFRGTVRYASVNAHKNREMGRHDDLWSLFYMLVEFAVGQLPWRKIKDKEQVGMIKEKYEHRMLLKHMPSEFHLFLDHIASLDYFTKPDYQLIMSVFENSMKERGIAENEAFDWEKAGTDALL	–	–	did phosphorylate tau protein as well as BDTK itself	120	tau phosphorylation was saturated at 60 min at pH 7.5
